Source: article PMC12416549 (2024)
Changes are numbered by the printed parent chain. Names may count otherwise.

T1: TNFR1 (Homo sapiens, UniProt P19438)
T1 chain: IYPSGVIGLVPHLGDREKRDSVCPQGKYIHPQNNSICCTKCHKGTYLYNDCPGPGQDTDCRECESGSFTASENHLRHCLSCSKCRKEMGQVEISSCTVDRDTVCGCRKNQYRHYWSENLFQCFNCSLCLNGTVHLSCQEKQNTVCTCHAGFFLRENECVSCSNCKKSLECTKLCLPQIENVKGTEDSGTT

B1: E7V (designed binder)
chain: SMEEEVVKAAKEYEKKKKEAIEKHLEKLKAKDKEAAERFLKELEEAAKEYAKDEAKTMSEEEAKRRAKKYKEKVLLSELSEEEQKEIKEAEEKLVRTILKYVEEAAK
B2: A63V (designed binder)
chain: B1 chain with V7E, A63V
B3: E49Y (designed binder)
chain: B1 chain with V7E, E49Y
B4: E72M (designed binder)
chain: B1 chain with V7E, E72M
B5: A67E (designed binder)
chain: B1 chain with V7E, A67E
B6: M2F (designed binder)
chain: B1 chain with M2F, V7E
B7: E62I (designed binder)
chain: B1 chain with V7E, E62I
B8: Y13P (designed binder)
chain: B1 chain with V7E, Y13P
B9: M2S (designed binder)
chain: B1 chain with M2S, V7E
B10: V74T (designed binder)
chain: B1 chain with V7E, V74T
B11: Y50A (designed binder)
chain: B1 chain with V7E, Y50A
B12: R66D (designed binder)
chain: B1 chain with V7E, R66D
B13: V95L (designed binder)
chain: B1 chain with V7E, V95L
B14: A63Y (designed binder)
chain: B1 chain with V7E, A63Y
B15: E61S (designed binder)
chain: B1 chain with V7E, E61S
B16: L94F (designed binder)
chain: B1 chain with V7E, L94F
B17: E103W (designed binder)
chain: B1 chain with V7E, E103W
B18: A10Q (designed binder)
chain: B1 chain with V7E, A10Q
B19: E45M (designed binder)
chain: B1 chain with V7E, E45M
B20: E5I (designed binder)
chain: B1 chain with E5I, V7E
B21: A105D (designed binder)
chain: B1 chain with V7E, A105D
B22: E91R (designed binder)
chain: B1 chain with V7E, E91R
B23: L40T (designed binder)
chain: B1 chain with V7E, L40T
B24: L75Y (designed binder)
chain: B1 chain with V7E, L75Y
B25: E82I (designed binder)
chain: B1 chain with V7E, E82I
B26: K27S (designed binder)
chain: B1 chain with V7E, K27S
B27: E49T (designed binder)
chain: B1 chain with V7E, E49T
B28: K18Q (designed binder)
chain: B1 chain with V7E, K18Q
B29: K8F (designed binder)
chain: B1 chain with V7E, K8F
B30: M2R (designed binder)
chain: B1 chain with M2R, V7E
B31: K27V (designed binder)
chain: B1 chain with V7E, K27V
B32: Y13F (designed binder)
chain: B1 chain with V7E, Y13F
B33: E81W (designed binder)
chain: B1 chain with V7E, E81W
B34: D32C (designed binder)
chain: B1 chain with V7E, D32C
B35: K64Y (designed binder)
chain: B1 chain with V7E, K64Y
B36: L25T (designed binder)
chain: B1 chain with V7E, L25T
B37: E104V (designed binder)
chain: B1 chain with V7E, E104V
B38: L28G (designed binder)
chain: B1 chain with V7E, L28G
B39: K17T (designed binder)
chain: B1 chain with V7E, K17T
B40: A9T (designed binder)
chain: B1 chain with V7E, A9T
B41: K52G (designed binder)
chain: B1 chain with V7E, K52G
B42: L79C (designed binder)
chain: B1 chain with V7E, L79C
B43: A105N (designed binder)
chain: B1 chain with V7E, A105N
B44: D53Y (designed binder)
chain: B1 chain with V7E, D53Y
B45: I21A (designed binder)
chain: B1 chain with V7E, I21A
B46: E19Y (designed binder)
chain: B1 chain with V7E, E19Y
B47: L28H (designed binder)
chain: B1 chain with V7E, L28H
B48: H24Q (designed binder)
chain: B1 chain with V7E, H24Q
B49: A35C (designed binder)
chain: B1 chain with V7E, A35C
B50: K11Y (designed binder)
chain: B1 chain with V7E, K11Y
B51: K100I (designed binder)
chain: B1 chain with V7E, K100I
B52: E104P (designed binder)
chain: B1 chain with V7E, E104P
B53: E92A (designed binder)
chain: B1 chain with V7E, E92A
B54: Q84S (designed binder)
chain: B1 chain with V7E, Q84S
B55: K93S (designed binder)
chain: B1 chain with V7E, K93S
B56: M2K (designed binder)
chain: B1 chain with M2K, V7E
B57: K33H (designed binder)
chain: B1 chain with V7E, K33H
B58: S59W (designed binder)
chain: B1 chain with V7E, S59W
B59: E3M (designed binder)
chain: B1 chain with E3M, V7E

Target: T1, TNFR1
Experiment: yeast display SC50

Row | Binder | apparent Kd (screen) [nM]
1 | B1 | 7.78
2 | B2 | 15.2
3 | B3 | 26.9
4 | B4 | 1.69
5 | B5 | 15.2
6 | B6 | 1.05
7 | B7 | 2.73
8 | B8 | 13.8
9 | B9 | 0.446
10 | B10 | 16.7
11 | B11 | 29.5
12 | B12 | 0.593
13 | B13 | 7.07
14 | B14 | 12.5
15 | B15 | 1.4
16 | B16 | 0.446
17 | B17 | 0.869
18 | B18 | 1.4
19 | B19 | 1.69
20 | B20 | 0.653

Row | Binder | apparent Kd (screen) [nM]
21 | B21 | 0.446
22 | B22 | 6.43
23 | B23 | 0.718
24 | B24 | 1.86
25 | B25 | 0.49
26 | B26 | 0.869
27 | B27 | 2.73
28 | B28 | 1.4
29 | B29 | 0.539
30 | B30 | 0.539
31 | B31 | 0.956
32 | B32 | 0.446
33 | B33 | 0.304
34 | B34 | 3
35 | B35 | 0.446
36 | B36 | 1.86
37 | B37 | 0.446
38 | B38 | 1.4
39 | B39 | 1.05
40 | B40 | 0.446

Row | Binder | apparent Kd (screen) [nM]
41 | B41 | 0.869
42 | B42 | 1.86
43 | B43 | 1.86
44 | B44 | 2.73
45 | B45 | 0.653
46 | B46 | 1.54
47 | B47 | 0.79
48 | B48 | 0.79
49 | B49 | 1.69
50 | B50 | 0.49
51 | B51 | 1.4
52 | B52 | 0.446
53 | B53 | 12.5
54 | B54 | 11.4
55 | B55 | 0.653
56 | B56 | 0.49
57 | B57 | 0.446
58 | B58 | 13.8
59 | B59 | 10.4
